Assay results reported in the nanobody polyreactivity screen of Harvey et al. (2022).

Test: yeast display, Sf9 membrane polyspecificity reagent, FACS + sequencing; frameworks hold sequencing errors
Summary of the method: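 In a synthetic yeast display library (Saccharomyces cerevisiae BJ5465), nanobody expression was induced with galactose for 36–48 hours. FACS gates were set low and high (top ~1%) using anti-HA fluorescence for expression and streptavidin fluorescence for binding of the Sf9 membrane reagent. Each polyreactivity label is drawn from the gate of origin.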

Sequence | polyreactivity (PSR sort gate)
QVQLVESGGGLVQAGGSLRISCAASGSTFYPNAMGWYRPAPGTERELVAAIRGTGGSTYADSVKGRFTISRDNAKNTVYLQMNSLKPEDTAVYYCAAAGWTYRVEKYSVRLTGYDYWGQGTQVTVSS | high polyreactivity
QVQLVESGGGLVQAGGSLRISCAASGSTIAGYTMGLYRQAPGKEMELVAAISRRGSRTYYADSVKGRFTISRDNAKNTVYLQMNSLKPEDTAVYYCNARNRVYYTLSGYGYWGQGTQVTVSS | high polyreactivity
QVQLVESGGGLVQAGGSLRISCAASGSTLYRNAMGWYRQAPGKERELVAAISRTGGRTYYADSVKGRCTISRDNANNTVYLQMNSLKPEETAVYYCNTLTPSYTSGTHTFYSWGQGTQVTVSS | high polyreactivity
QVQLVESGGGLVQAGGSLRISCAASRSIFPLNAMGWYRQAPGKERELVAAITRSGGSTYYADSVKGRFTISRDNAKNTVYLQMNSLKPEDTAVYYCATDPEWPLPAYYYWGQGTQVTVSS | low polyreactivity
QVQLVESGGGLVQAGGSLRISCADSGSIFGYNAMGWYRQAPGKERELVAAISWSGGRTYYADSVKGRFTISRDNAKNTVSFQMNSLKPEDTAVYYCAAPSTGTYGSDYWGHGTQVTVSS | high polyreactivity
QVQLVESGGGLVQAGGSLRISCAPSGITLRRNAMGRYRQAPGKERELVARISTTGGSTYYADSVKGRFTISRDNAKNTVYLQMNSLKPEDTAVYYCAARAPLGFWHYDYWGQGTQVTVSS | high polyreactivity
QVQLVESGGGLVQAGGSLRISCAPSGSIFSDYAMGWYRQAPGKERELVATISSSGSTNYADSVKGRFTISRDNAKNTVYLQMNSLKPEDTAVYYCAAARLFAMDYWGQGTQVTVSS | low polyreactivity
QVQLVESGGGLVQAGGSLRISCAPSGSTFPRYAMGWYRQAPGKEREFVAVIWSGGSTYYADSVKGRFTISRDNAKNTVYLQMNSLKPEDTAVYYCAAEYHTLSKYSGYATHDYWGQGTQVTVSS | low polyreactivity
QVQLVESGGGLVQAGGSLRISCASSGNTFTSYAMGWYRQAPGKASELVASIDSDDSTNYADSVKGRFTISRDNAKNTDYFQMNSLKPEETAVFYCAASDNDDWYYVYHYDYWVQGTQVTVSS | low polyreactivity
QVQLVESGGGLVQAGGSLRISCDASGSIISRNAMGWYRQAPGKEREFVAAITRSGGSTSYADSVKGRFTISRDNAKNTVYLQMNSLKPEDTAVYYCAASYARSATAYYKYYDWGQGTQVTVSS | high polyreactivity
QVQLVESGGGLVQAGGSLRISCDASGSTFKLYPMGWYRQAPGKEREFVAAISRSGGSTNYADSVNGRFTISRDNAKNTVYLQMNSLKPEDTAVYYCAARYPGNYDYWGQGTQVTVSS | high polyreactivity
QVQLVESGGGLVQAGGSLRISCDPSGSTFGQYAMGSYRQAPGKERELVAAINWNGGSTYYADSVKGRFTISRDNAKNTVYLQMNSLKPEDTAVYYCAADPVYYDFDYWGQGTQVTVSS | low polyreactivity
QVQLVESGGGLVQAGGSLRISCVASARTFRWYAMGWYRQAPGKERELVATITLNGGSTYYADSVKGRFTISRDNAKNNVYLQMNSLKPEDTAVYYCNRGTNVVRRGVYSFGYDYWGQGTQVTVSS | low polyreactivity
QVQLVESGGGLVQAGGSLRISSAASGFIFSLNAMGWYRQAPGKERELVASITRSGTRTYYADSVKGRFTISRDNAKKTDFLQRNSLKPEATAVDYCAARTKRSYEYQAFYYWGQGTQVTVSS | high polyreactivity
QVQLVESGGGLVQAGGSLRISSAASGRIFRVNGIGWYIQAPGKERELVAAIRRSGGSTYYADSVKGRFTISRDNAKNSVYLLMNILKPDDTAVYFCAAPVRQSSYTRYDSWGQGTQVTVSS | high polyreactivity
QVQLVESGGGLVQAGGSLRISSAASGRMLYSYAMGWYRQAPGKESEFVAAIRRSGGSTYYADSVKGRFTISRDNAKNTVYLQMNSLKPEDTAFYYCAAGRRYSGSYDYWGQGTQVTVSS | high polyreactivity
QVQLVESGGGLVQAGGSLRITCAASGSTFYGKSMGLYRQAPGKERELVAAISRGGGSTYYADSVKGRFTISRDNAKNTVYLQMNSLIPEDTAVYYCAGTRYLHPWYYPYYYWGQGTQVTVSS | low polyreactivity
QVQLVESGGGLVQAGGSLRLALLTPDLPSTINDMGWYRQAPGKERELVAAITRGGSTNYADSVKGRFTISRDNAKNTVYLQMNSLKPEDTAVYYCAAPSAGWRDGGDYWGHGTQVTVSS | low polyreactivity
QVQLVESGGGLVQAGGSLRLAVLPPVLPSTLNDMGWYRQAPGKERELVAAITRGGSTNYADSVKGRFTISRDNAKNTVYLQMNSQKPEDTAVYYCAAPYAGWRDGGDNWGQGTQVTVSS | low polyreactivity
QVQLVESGGGLVQAGGSLRLCCAASGLIFRRYTMGWYRQAPGKERELVAAISWRVGRTYYADSVKGRFTISRDNAKNTVYLEMNSLKPEDTAVYYCAAILYQYDTPQVSSSRLDYWGQGTQVTVSS | high polyreactivity
QVQLVESGGGLVQAGGSLRLCCAASGSIFRPNAMGWYRQAPGKERELVAGISSRGGSTYYADSVKGRFTISRDNAKNTVYLQMNSLKPEDTAVYYCNALTYSSQRNSFYYSFDHWGQGTQVTVSS | high polyreactivity
QVQLVESGGGLVQAGGSLRLCCAASGSTFGWNAMRSYRQAPGNERELVAAISSSGGITYYADSVKGRFPISRDNAKNTVYLQMNSLKPEDTAVYYCAAERDDDWFNYWGQGTQVTVSS | low polyreactivity

Sequence | polyreactivity (PSR sort gate)
QVQLVESGGGLVQAGGSLRLICAASGASFFDKDMGWYRQAPGKERELVAAAITARGGSTYYADSVKGRFTISRDNAKNTVYLQMNSLKPEDTAVYYCAAGRPGELDYWGQGTQVTVSS | low polyreactivity
QVQLVESGGGLVQAGGSLRLICAASGFIFDTYTMGWYRQAPGKERELVAAISRSGASTYYADSVKGRFTISRDNAKNTVYLQMNSLKPEDTAVYYCATVYYPSYRGGYDYWGQGTQVTVSS | high polyreactivity
QVQLVESGGGLVQAGGSLRLICAASGFIFDYNTMGWYRPAPGKERELVAGITSGGSTNYADSVKGRFTISRDNAKNTVYLQMNSLKPEDTAVYYCATVDDEYYGYDYWGQGSQVTVSS | low polyreactivity
QVQLVESGGGLVQAGGSLRLICAASGFIFESNAMGWYRQAPGKERELVAAITSAGRTYYADSVKGRFTISRDNAKNTVYLQMNSLKPEDNAVYYCNATRSRYRYDYWGQGTQVTVSS | high polyreactivity
QVQLVESGGGLVQAGGSLRLICAASGFIFLDYAMGWSRPAPGKERELVAAISSRGARTYYADSVKGRFTISRDNEKNTVYLQMNSLKPEDTAVYYCAARGPLDRYGYWGQGTQVTVSS | high polyreactivity
QVQLVESGGGLVQAGGSLRLICAASGFIFNAYAMGWYRQAPGKERELVAAISTRGSNTYYADSVKGRFTISRDNAKNTVYLQMNSLKPEDTAVYYCNRVFSYQYKRDYWGQGTQVTVSS | high polyreactivity
QVQLVESGGGLVQAGGSLRLICAASGFIFPDYTMGWYRHAPGKERELVAAINVSGGSTYYADSVKGRFTISRDHAKNTVYLQMNSLKPEDTAVYYCAAVGGRFVRRSTMDYWGQGTQVTVSS | low polyreactivity
QVQLVESGGGLVQAGGSLRLICAASGFIFRRYAMGWYRQSPGKERELVAAISSRGGSTYYADSVKGRFTISRDNAKNTVYLQMNSLKPEDTAVYYCAAYDAVTYPFDYWGQGTQVTVSS | high polyreactivity
QVQLVESGGGLVQAGGSLRLICAASGFIIRYYAMGWYRQAPGKERELVAVISASGGSTYYADSVKGRFTISRDNAKNTVYLQMNSLKPEDTAVYYCNTKRYFFHRGDMDYWGQGTQVTVSS | high polyreactivity
QVQLVESGGGLVQAGGSLRLICAASGFIIYSYAMGWYRQAPGKERELVAGITSDGRTYYADSVKGRFTISRDNAKNTVYLQMNSQKPEDTAVSYCAARYYLFYRVSPYYYWGQGTQVTVSS | low polyreactivity
QVQLVESGGGLVQAGGSLRLICAASGFISNINVMGWYRQAPGKERELVAAITYIDGSTFYADSVKGRFTISRDNAKNTVYLQMNSLKPEDTAVYYCAKTRVRGSEFGYWGQGTQVTVSS | low polyreactivity
QVQLVESGGGLVQAGGSLRLICAASGFTFDANAMGWYRQAPGKERELVAAITRVGSTFYADSVKGRFTISRDNAKNTVYLQMNSLKPEDTAVYYCNAARDHVSGYVYWGQGTQVTVSS | low polyreactivity
QVQLVESGGGLVQAGGSLRLICAASGFTFEYYAMGWYRQAPGKERELVAAISGSGVSTYYADSVKGRFTISRDNAKNTVYLQMNSLNPEDTAVYYCAALGDKYGSNRLDHYWYIWYDSWGQGTQVTVSS | low polyreactivity
QVQLVESGGGLVQAGGSLRLICAASGFTFFAYAMGWYRQAPGKERELVAGISRSGGRTYYADSVKGRFTISRDNAKNTVYLQMNSLKPEDTAVYYCAAGIPVTSRFYGMDWGQGTQVTVSS | high polyreactivity
QVQLVESGGGLVQAGGSLRLICAASGFTFGYYAMGWYRQAPGKERELVAAITSRGTRTSYADSVKGRFTISRDNEKNTVYLQMNSLKPEDTAVNYCAARVLRGLGEYYWGQGTQVTVSS | high polyreactivity
QVQLVESGGGLVQAGGSLRLICAASGFTFSINTRGWYRQAPGKEREFVAGISRSGGSTYYADSVKGRFTISRDNAKNTVYLQMNSLKPEDTAVYYCNADRYSWYTPLGYDYWGQGTQVNVSS | high polyreactivity
QVQLVESGGGLVQAGGSLRLICAASGFTFVRYTMGWYRQAPGKERELVAVIRRGGSTYYADSVKGRFTISRDNAKNTVYLQMNSLKPEDTAVYYCNALSALAVEDGYWGQGTQVTVSS | low polyreactivity
QVQLVESGGGLVQAGGSLRLICAASGGIFDFYAMGWYRQAPGKERELVAAITRSGSSTFYADSVKGRFTISRDNAKNTVYLQMNSLKPEDTAVYYCAAPYYYFAVYYGYIFEYDYWGQGTQVTVSS | low polyreactivity
QVQLVESGGGLVQAGGSLRLICAASGGISLYYVKGWYRQAPGKERELVADISGDDSTNYADSVKGRFTISRDNAKNTVYLQMNSLKPEDTAVYYSAAVPGLFYLPYDYWGQGTQVTVSS | low polyreactivity
QVQLVESGGGLVQAGGSLRLICAASGGTFRYYTMVWYRQAPGKERELVAAITRGGRTYYADSVKGRFTISRDNAKNTVYIQMNSLKPEDTAVYYCAGVRPRSPVSYENDYWGQGTQVTVSS | high polyreactivity
QVQLVESGGGLVQAGGSLRLICAASGIFSYYARGWYRQAPGKERELVATISRRGSSTYYADSVKGRFTISRDNAKNTVYLQMNSLKPEDTAVYYCNADIGWGRFSQSFDYWGQGTQVTVSS | low polyreactivity
